T1: FcγRIIb (human, UniProt P31994 43-217)
T1 construct: extracellular domain; Soluble His-tagged extracellular domain expressed in FreeStyle293 cells; analyte in Biacore; also called FcgRIIb; 2b; not shown: His tag attached to the C terminus
T1 sequence (looked up): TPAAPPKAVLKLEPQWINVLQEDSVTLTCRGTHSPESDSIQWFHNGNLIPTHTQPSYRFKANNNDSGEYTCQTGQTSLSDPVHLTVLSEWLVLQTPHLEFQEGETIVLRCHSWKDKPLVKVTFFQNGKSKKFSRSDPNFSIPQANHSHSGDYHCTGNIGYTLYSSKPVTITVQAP

T2: FcγRIIa R (human, UniProt P12318 34-217)
T2 construct: extracellular domain; Soluble His-tagged extracellular domain expressed in FreeStyle293 cells; analyte in Biacore; also called FcgRIIa R; FcgRIIaR; not shown: His tag attached to the C terminus
T2 sequence (looked up): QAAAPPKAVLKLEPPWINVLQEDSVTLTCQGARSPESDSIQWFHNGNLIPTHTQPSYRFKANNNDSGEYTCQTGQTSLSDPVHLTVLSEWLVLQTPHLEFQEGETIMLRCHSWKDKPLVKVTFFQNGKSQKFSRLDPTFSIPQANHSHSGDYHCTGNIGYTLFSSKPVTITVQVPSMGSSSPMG

T3: FcγRIIb (human, UniProt P31994 43-217)
T3 construct: extracellular domain; also called FcgRIIb; 2b
T3 sequence (looked up): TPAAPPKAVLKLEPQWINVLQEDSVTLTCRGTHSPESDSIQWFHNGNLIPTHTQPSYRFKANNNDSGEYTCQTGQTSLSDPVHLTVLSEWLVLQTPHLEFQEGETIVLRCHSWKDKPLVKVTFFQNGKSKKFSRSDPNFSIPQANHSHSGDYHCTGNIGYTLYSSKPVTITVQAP


Legend:
FcγRIIb [1] = target: T1, FcγRIIb; experiment: SPR (Biacore), antibody captured via antigen peptide, FcγR as analyte
FcγRIIa R [2] = target: T2, FcγRIIa R; experiment: as above
FcγRIIa R [3] = target: T2, FcγRIIa R; experiment: ratio of He/Con_2aR to He/Con_2b (binding to FcγRIIb as reference); SPR
FcγRIIIa [4] = target: T4, FcγRIIIa (human, UniProt P08637 17-208); experiment: SPR; He/Con_3a divided by He/Con_2b (FcγRIIIa against FcγRIIb)
T4 construct: extracellular domain; also called FcgRIIIa; 3a
T4 sequence (P08637 17-208): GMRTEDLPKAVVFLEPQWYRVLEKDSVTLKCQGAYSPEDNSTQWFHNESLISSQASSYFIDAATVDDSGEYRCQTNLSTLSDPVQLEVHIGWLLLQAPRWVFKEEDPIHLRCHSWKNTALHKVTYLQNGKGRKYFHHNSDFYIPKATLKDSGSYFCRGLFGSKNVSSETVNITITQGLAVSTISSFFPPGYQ

FcγRIIb [5] = target: T3, FcγRIIb; experiment: SPR (Biacore), relative binding
FcγRIIIa [6] = target: T4, FcγRIIIa; experiment: SPR (Biacore), relative binding

He/Con_2b (IIb binding relative to GpH7-A5/GpH7-B3/GpL16-k0) (FcγRIIb [1]) | He/Con_2aR (IIaR binding relative to GpH7-A5/GpH7-B3/GpL16-k0) (FcγRIIa R [2]) | He_2aR/2b (IIaR/IIb) (FcγRIIa R [3]) | He_3a/2b (IIIa/IIb) (FcγRIIIa [4]) [ratio] | He/Con_2b (FcγRIIb [5]) | He/Con_3a (FcγRIIIa [6]) | Binder
41.2 % of control (control = 100) | 55.1 % of control (control = 100) | 1.34 |  |  |  | GpH7-A5/GpH7-B3 variant Y300_12R/GpL16-k0 (antibody, human IgG1, kappa, Heterodimerized anti-glypican-3 IgG1 antibody; alteration only in the GpH7-B3 H chain; position in EU numbering; also called He Ab) heavy 1: not shown heavy 2: not shown light: DIVMTQSPLSLPVTPGEPASISCQASESLVHSNRNTYLHWYLQKPGQSPQLLIYKVSNRFSGVPDRFSGSGSGTDFTLKISRVEAEDVGVYYCSQNTHVPPTFGQGTKVEIERTVAAPSVFIFPPSDEQLKSGTASVVCLLNNFYPREAKVQWKVDNALQSGNSQESVTEQDSKDSTYSLSSTLTLSKADYEKHKVYACEVTHQGLSSPVTKSFNRGEC
82.7 % of control (control = 100) | 100 % of control (control = 100) | 1.21 |  |  |  | GpH7-A5/GpH7-B3 variant Y300_18N/GpL16-k0 (antibody, human IgG1, kappa, Heterodimerized anti-glypican-3 IgG1 antibody; alteration only in the GpH7-B3 H chain; position in EU numbering; also called He Ab) heavy 1: not shown heavy 2: not shown light: DIVMTQSPLSLPVTPGEPASISCQASESLVHSNRNTYLHWYLQKPGQSPQLLIYKVSNRFSGVPDRFSGSGSGTDFTLKISRVEAEDVGVYYCSQNTHVPPTFGQGTKVEIERTVAAPSVFIFPPSDEQLKSGTASVVCLLNNFYPREAKVQWKVDNALQSGNSQESVTEQDSKDSTYSLSSTLTLSKADYEKHKVYACEVTHQGLSSPVTKSFNRGEC
 |  |  | 0.21 | 15 % of GpH7-A5/GpH7-B3/GpL16-k0 | 3.2 % of GpH7-A5/GpH7-B3/GpL16-k0 | GpH7-A5/GpH7-B3 variant D265_12R/GpL16-k0 (antibody, human IgG1, kappa, mutation in the GpH7-B3 chain only; also called He Ab) heavy 1: not shown heavy 2: not shown light: DIVMTQSPLSLPVTPGEPASISCQASESLVHSNRNTYLHWYLQKPGQSPQLLIYKVSNRFSGVPDRFSGSGSGTDFTLKISRVEAEDVGVYYCSQNTHVPPTFGQGTKVEIERTVAAPSVFIFPPSDEQLKSGTASVVCLLNNFYPREAKVQWKVDNALQSGNSQESVTEQDSKDSTYSLSSTLTLSKADYEKHKVYACEVTHQGLSSPVTKSFNRGEC
 |  |  | 0.35 | 11.3 % of GpH7-A5/GpH7-B3/GpL16-k0 | 3.9 % of GpH7-A5/GpH7-B3/GpL16-k0 | GpH7-A5/GpH7-B3 variant D265_13S/GpL16-k0 (antibody, human IgG1, kappa, mutation in the GpH7-B3 chain only; also called He Ab) heavy 1: not shown heavy 2: not shown light: DIVMTQSPLSLPVTPGEPASISCQASESLVHSNRNTYLHWYLQKPGQSPQLLIYKVSNRFSGVPDRFSGSGSGTDFTLKISRVEAEDVGVYYCSQNTHVPPTFGQGTKVEIERTVAAPSVFIFPPSDEQLKSGTASVVCLLNNFYPREAKVQWKVDNALQSGNSQESVTEQDSKDSTYSLSSTLTLSKADYEKHKVYACEVTHQGLSSPVTKSFNRGEC
 |  |  | 0.27 | 16 % of GpH7-A5/GpH7-B3/GpL16-k0 | 4.3 % of GpH7-A5/GpH7-B3/GpL16-k0 | GpH7-A5/GpH7-B3 variant D265_14T/GpL16-k0 (antibody, human IgG1, kappa, mutation in the GpH7-B3 chain only; also called He Ab) heavy 1: not shown heavy 2: not shown light: DIVMTQSPLSLPVTPGEPASISCQASESLVHSNRNTYLHWYLQKPGQSPQLLIYKVSNRFSGVPDRFSGSGSGTDFTLKISRVEAEDVGVYYCSQNTHVPPTFGQGTKVEIERTVAAPSVFIFPPSDEQLKSGTASVVCLLNNFYPREAKVQWKVDNALQSGNSQESVTEQDSKDSTYSLSSTLTLSKADYEKHKVYACEVTHQGLSSPVTKSFNRGEC
 |  |  | -2.86 | 0.6 % of GpH7-A5/GpH7-B3/GpL16-k0 | -1.7 % of GpH7-A5/GpH7-B3/GpL16-k0 | GpH7-A5/GpH7-B3 variant D265_15Y/GpL16-k0 (antibody, human IgG1, kappa, mutation in the GpH7-B3 chain only; also called He Ab) heavy 1: not shown heavy 2: not shown light: DIVMTQSPLSLPVTPGEPASISCQASESLVHSNRNTYLHWYLQKPGQSPQLLIYKVSNRFSGVPDRFSGSGSGTDFTLKISRVEAEDVGVYYCSQNTHVPPTFGQGTKVEIERTVAAPSVFIFPPSDEQLKSGTASVVCLLNNFYPREAKVQWKVDNALQSGNSQESVTEQDSKDSTYSLSSTLTLSKADYEKHKVYACEVTHQGLSSPVTKSFNRGEC

Second part, the binder before the results:

Binder | He/Con_2b (IIb binding relative to GpH7-A5/GpH7-B3/GpL16-k0) (FcγRIIb [1]) | He/Con_2aR (IIaR binding relative to GpH7-A5/GpH7-B3/GpL16-k0) (FcγRIIa R [2]) | He_2aR/2b (IIaR/IIb) (FcγRIIa R [3]) | He_3a/2b (IIIa/IIb) (FcγRIIIa [4]) [ratio] | He/Con_2b (FcγRIIb [5]) | He/Con_3a (FcγRIIIa [6])
GpH7-A5/GpH7-B3 variant V266_01G/GpL16-k0 (antibody, human IgG1, kappa, mutation in the GpH7-B3 chain only; also called He Ab) heavy 1: not shown heavy 2: not shown light: DIVMTQSPLSLPVTPGEPASISCQASESLVHSNRNTYLHWYLQKPGQSPQLLIYKVSNRFSGVPDRFSGSGSGTDFTLKISRVEAEDVGVYYCSQNTHVPPTFGQGTKVEIERTVAAPSVFIFPPSDEQLKSGTASVVCLLNNFYPREAKVQWKVDNALQSGNSQESVTEQDSKDSTYSLSSTLTLSKADYEKHKVYACEVTHQGLSSPVTKSFNRGEC |  |  |  | 0.47 | 51.5 % of GpH7-A5/GpH7-B3/GpL16-k0 | 24 % of GpH7-A5/GpH7-B3/GpL16-k0
GpH7-A5/GpH7-B3 variant D265_03V/GpL16-k0 (antibody, human IgG1, kappa, mutation in the GpH7-B3 chain only; also called He Ab) heavy 1: not shown heavy 2: not shown light: DIVMTQSPLSLPVTPGEPASISCQASESLVHSNRNTYLHWYLQKPGQSPQLLIYKVSNRFSGVPDRFSGSGSGTDFTLKISRVEAEDVGVYYCSQNTHVPPTFGQGTKVEIERTVAAPSVFIFPPSDEQLKSGTASVVCLLNNFYPREAKVQWKVDNALQSGNSQESVTEQDSKDSTYSLSSTLTLSKADYEKHKVYACEVTHQGLSSPVTKSFNRGEC |  |  |  | 0.19 | 3.2 % of GpH7-A5/GpH7-B3/GpL16-k0 | 0.6 % of GpH7-A5/GpH7-B3/GpL16-k0
GpH7-A5/GpH7-B3 variant D265_04F/GpL16-k0 (antibody, human IgG1, kappa, mutation in the GpH7-B3 chain only; also called He Ab) heavy 1: not shown heavy 2: not shown light: DIVMTQSPLSLPVTPGEPASISCQASESLVHSNRNTYLHWYLQKPGQSPQLLIYKVSNRFSGVPDRFSGSGSGTDFTLKISRVEAEDVGVYYCSQNTHVPPTFGQGTKVEIERTVAAPSVFIFPPSDEQLKSGTASVVCLLNNFYPREAKVQWKVDNALQSGNSQESVTEQDSKDSTYSLSSTLTLSKADYEKHKVYACEVTHQGLSSPVTKSFNRGEC |  |  |  | 0 | 3.2 % of GpH7-A5/GpH7-B3/GpL16-k0 | 0 % of GpH7-A5/GpH7-B3/GpL16-k0
GpH7-A5/GpH7-B3 variant D265_06M/GpL16-k0 (antibody, human IgG1, kappa, mutation in the GpH7-B3 chain only; also called He Ab) heavy 1: not shown heavy 2: not shown light: DIVMTQSPLSLPVTPGEPASISCQASESLVHSNRNTYLHWYLQKPGQSPQLLIYKVSNRFSGVPDRFSGSGSGTDFTLKISRVEAEDVGVYYCSQNTHVPPTFGQGTKVEIERTVAAPSVFIFPPSDEQLKSGTASVVCLLNNFYPREAKVQWKVDNALQSGNSQESVTEQDSKDSTYSLSSTLTLSKADYEKHKVYACEVTHQGLSSPVTKSFNRGEC |  |  |  | 0.26 | 10 % of GpH7-A5/GpH7-B3/GpL16-k0 | 2.6 % of GpH7-A5/GpH7-B3/GpL16-k0
GpH7-A5/GpH7-B3 variant D265_07I/GpL16-k0 (antibody, human IgG1, kappa, mutation in the GpH7-B3 chain only; also called He Ab) heavy 1: not shown heavy 2: not shown light: DIVMTQSPLSLPVTPGEPASISCQASESLVHSNRNTYLHWYLQKPGQSPQLLIYKVSNRFSGVPDRFSGSGSGTDFTLKISRVEAEDVGVYYCSQNTHVPPTFGQGTKVEIERTVAAPSVFIFPPSDEQLKSGTASVVCLLNNFYPREAKVQWKVDNALQSGNSQESVTEQDSKDSTYSLSSTLTLSKADYEKHKVYACEVTHQGLSSPVTKSFNRGEC |  |  |  | -0.61 | 1.3 % of GpH7-A5/GpH7-B3/GpL16-k0 | -0.8 % of GpH7-A5/GpH7-B3/GpL16-k0
GpH7-A5/GpH7-B3 variant D265_08L/GpL16-k0 (antibody, human IgG1, kappa, mutation in the GpH7-B3 chain only; also called He Ab) heavy 1: not shown heavy 2: not shown light: DIVMTQSPLSLPVTPGEPASISCQASESLVHSNRNTYLHWYLQKPGQSPQLLIYKVSNRFSGVPDRFSGSGSGTDFTLKISRVEAEDVGVYYCSQNTHVPPTFGQGTKVEIERTVAAPSVFIFPPSDEQLKSGTASVVCLLNNFYPREAKVQWKVDNALQSGNSQESVTEQDSKDSTYSLSSTLTLSKADYEKHKVYACEVTHQGLSSPVTKSFNRGEC |  |  |  | 0 | 4.6 % of GpH7-A5/GpH7-B3/GpL16-k0 | 0 % of GpH7-A5/GpH7-B3/GpL16-k0
GpH7-A5/GpH7-B3 variant D265_10E/GpL16-k0 (antibody, human IgG1, kappa, mutation in the GpH7-B3 chain only; also called He Ab) heavy 1: not shown heavy 2: not shown light: DIVMTQSPLSLPVTPGEPASISCQASESLVHSNRNTYLHWYLQKPGQSPQLLIYKVSNRFSGVPDRFSGSGSGTDFTLKISRVEAEDVGVYYCSQNTHVPPTFGQGTKVEIERTVAAPSVFIFPPSDEQLKSGTASVVCLLNNFYPREAKVQWKVDNALQSGNSQESVTEQDSKDSTYSLSSTLTLSKADYEKHKVYACEVTHQGLSSPVTKSFNRGEC |  |  |  | 0.53 | 38.2 % of GpH7-A5/GpH7-B3/GpL16-k0 | 20.1 % of GpH7-A5/GpH7-B3/GpL16-k0
GpH7-A5/GpH7-B3 variant D265_11K/GpL16-k0 (antibody, human IgG1, kappa, mutation in the GpH7-B3 chain only; also called He Ab) heavy 1: not shown heavy 2: not shown light: DIVMTQSPLSLPVTPGEPASISCQASESLVHSNRNTYLHWYLQKPGQSPQLLIYKVSNRFSGVPDRFSGSGSGTDFTLKISRVEAEDVGVYYCSQNTHVPPTFGQGTKVEIERTVAAPSVFIFPPSDEQLKSGTASVVCLLNNFYPREAKVQWKVDNALQSGNSQESVTEQDSKDSTYSLSSTLTLSKADYEKHKVYACEVTHQGLSSPVTKSFNRGEC |  |  |  | 0.17 | 14.9 % of GpH7-A5/GpH7-B3/GpL16-k0 | 2.5 % of GpH7-A5/GpH7-B3/GpL16-k0
